The values below come from article PMC8752480 (Journal of molecular biology, 2021).

Sequences and labels used below:
B1: penton base of HAdV-C5 in the Ad5F35-ts1 virion (natural protein)
chain: MRRAAMYEEGPPPSYESVVSAAPVAAALGSPFDAPLDPPFVPPRYLRPTGGRNSIRYSELAPLFDTTRVYLVDNKSTDVASLNYQNDHSNFLTTVIQNNDYSPGEASTQTINLDDRSHWGGDLKTILHTNMPNVNEFMFTNKFKARVMVSRLPTKDNQVELKYEWVEFTLPEGNYSETMTIDLMNNAIVEHYLKVGRQNGVLESDIGVKFDTRNFRLGFDPVTGLVMPGVYTNEAFHPDIILLPGCGVDFTHSRLSNLLGIRKRQPFQEGFRITYDDLEGGNIPALLDVDAYQASLKDDTEQGGGGAGGSNSSGSGAEENSNAAAAAMQPVEDMNDHAIRGDTFATRAEEKRAEAEAAAEAAAPAAQPEVEKPQKKPVIKPLTEDSKKRSYNLISNDSTFTQYRSWYLAYNYGDPQTGIRSWTLLCTPDVTCGSEQVYWSLPDMMQDPVTFRSTRQISNFPVVGAELLPVHSKSFYNDQAVYSQLIRQFTSLTHVFNRFPENQILARPPAPTITTVSENVPALTDHGTLPLRNSIGGVQRVTITDARRRTCPYVYKALGIVSPRVLSSRTF
B2: protein IX of HAdV-C5 in the Ad5F35-ts1 virion (natural protein)
chain: MSTNSFDGSIVSSYLTTRMPPWAGVRQNVMGSSIDGRPVLPANSTTLTYETVSGTPLETAASAAASAAAATARGIVTDFAFLSPLASSAASRSSARDDKLTALLAQLDSLTRELNVVSQQLLDLRQQVSALKASSPPNAV
B3: precursor of protein IIIa (pIIIa) of HAdV-C5 in the Ad5F35-ts1 virion (natural protein)
chain: MMQDATDPAVRAALQSQPSGLNSTDDWRQVMDRIMSLTARNPDAFRQQPQANRLSAILEAVVPARANPTHEKVLAIVNALAENRAIRPDEAGLVYDALLQRVARYNSGNVQTNLDRLVGDVREAVAQRERAQQQGNLGSMVALNAFLSTQPANVPRGQEDYTNFVSALRLMVTETPQSEVYQSGPDYFFQTSRQGLQTVNLSQAFKNLQGLWGVRAPTGDRATVSSLLTPNSRLLLLLIAPFTDSGSVSRDTYLGHLLTLYREAIGQAHVDEHTFQEITSVSRALGQEDTGSLEATLNYLLTNRRQKIPSLHSLNSEEERILRYVQQSVSLNLMRDGVTPSVALDMTARNMEPGMYASNRPFINRLMDYLHRAAAVNPEYFTNAILNPHWLPPPGFYTGGFEVPEGNDGFLWDDIDDSVFSPQPQTLLELQQREQAEAALRKESFRRPSSLSDLGAAAPRSDASSPFPSLIGSLTSTRTTRPRLLGEEEYLNNSLLQPQREKNLPPAFPNNGIESLVDKMSRWKTYAQEHRDVPGPRPPTRRQRHDRQRGLVWEDDDSADDSSVLDLGGSGNPFAHLRPRLGRMF
B4: precursor of protein VIII (pVIII) of HAdV-C5 in the Ad5F35-ts1 virion (natural protein)
chain: MSKEIPTPYMWSYQPQMGLAAGAAQDYSTRINYMSAGPHMISRVNGIRAHRNRILLEQAAITTTPRNNLNPRSWPAALVYQESPAPTTVVLPRDAQAEVQMTNSGAQLAGGFRHRVRSPGQGITHLTIRGRGIQLNDESVSSSLGLRPDGTFQIGGAGRPSFTPRQAILTLQTSSSEPRSGGIGTLQFIEEFVPSVYFNPFSGPPGHYPDQFIPNFDAVKDSADGYD
B5: precursor of protein VI (pVI) of HAdV-C5 in the Ad5F35-ts1 virion (natural protein)
chain: MEDINFASLAPRHGSRPFMGNWQDIGTSNMSGGAFSWGSLWSGIKNFGSTVKNYGSKAWNSSTGQMLRDKLKEQNFQQKVVDGLASGISGVVDLANQAVQNKINSKLDPRPPVEEPPPAVETVSPEGRGEKRPRPDREETLVTQIDEPPSYEEALKQGLPTTRPIAPMATGVLGQHTPVTLDLPPPADTQQKPVLPGPTAVVVTRPSRASLRRAASGPRSLRPVASGNWQSTLNSIVGLGVQSLKRRRCF
B6: hexon (major capsid protein) of HAdV-C5 in the Ad5F35-ts1 virion (natural protein)
chain: MATPSMMPQWSYMHISGQDASEYLSPGLVQFARATETYFSLNNKFRNPTVAPTHDVTTDRSQRLTLRFIPVDREDTAYSYKARFTLAVGDNRVLDMASTYFDIRGVLDRGPTFKPYSGTAYNALAPKGAPNPCEWDEAATALEINLEEEDDDNEDEVDEQAEQQKTHVFGQAPYSGINITKEGIQIGVEGQTPKYADKTFQPEPQIGESQWYETEINHAAGRVLKKTTPMKPCYGSYAKPTNENGGQGILVKQQNGKLESQVEMQFFSTTEATAGNGDNLTPKVVLYSEDVDIETPDTHISYMPTIKEGNSRELMGQQSMPNRPNYIAFRDNFIGLMYYNSTGNMGVLAGQASQLNAVVDLQDRNTELSYQLLLDSIGDRTRYFSMWNQAVDSYDPDVRIIENHGTEDELPNYCFPLGGVINTETLTKVKPKTGQENGWEKDATEFSDKNEIRVGNNFAMEINLNANLWRNFLYSNIALYLPDKLKYSPSNVKISDNPNTYDYMNKRVVAPGLVDCYINLGARWSLDYMDNVNPFNHHRNAGLRYRSMLLGNGRYVPFHIQVPQKFFAIKNLLLLPGSYTYEWNFRKDVNMVLQSSLGNDLRVDGASIKFDSICLYATFFPMAHNTASTLEAMLRNDTNDQSFNDYLSAANMLYPIPANATNVPISIPSRNWAAFRGWAFTRLKTKETPSLGSGYDPYYTYSGSIPYLDGTFYLNHTFKKVAITFDSSVSWPGNDRLLTPNEFEIKRSVDGEGYNVAQCNMTKDWFLVQMLANYNIGYQGFYIPESYKDRMYSFFRNFQPMSRQVVDDTKYKDYQQVGILHQHNNSGFVGYLAPTMREGQAYPANFPYPLIGKTAVDSITQKKFLCDRTLWRIPFSSNFMSMGALTDLGQNLLYANSAHALDMTFEVDPMDEPTLLYVLFEVFDVVRVHRPHRGVIETVYLRTPFSAGNATT

The target of the first series is B6. The series is described as follows: […].
B1: the binding result was “binds”.
Still for that read-out and setting: next, B2: “binds”.
As to B3, the binding result is “binds”.
As for B4, the binding result was “binds”.
On the same count and under the same terms, next, B5: “binds”.

Another series deals with the molecule itself. The series is described as follows: […].
For the molecule B1, the binding result is recorded as “binds”.
Same read-out and setting: next, B6: “binds”; B3: “binds”.
